We go through one molecule from patent US20100331255A1 (WAKE FOREST UNIVERSITY HEALTH SCIENCES, published 2010).

The assay has as its target T1, Rat PDI (protein disulfide isomerase) in extracted rat liver microsomal membranes (rat, UniProt P04785 20-509).
T1 construct: Endogenous protein solubilised from extracted rat liver microsomal membranes; also called 55 kDa PDI protein
T1 sequence (looked up): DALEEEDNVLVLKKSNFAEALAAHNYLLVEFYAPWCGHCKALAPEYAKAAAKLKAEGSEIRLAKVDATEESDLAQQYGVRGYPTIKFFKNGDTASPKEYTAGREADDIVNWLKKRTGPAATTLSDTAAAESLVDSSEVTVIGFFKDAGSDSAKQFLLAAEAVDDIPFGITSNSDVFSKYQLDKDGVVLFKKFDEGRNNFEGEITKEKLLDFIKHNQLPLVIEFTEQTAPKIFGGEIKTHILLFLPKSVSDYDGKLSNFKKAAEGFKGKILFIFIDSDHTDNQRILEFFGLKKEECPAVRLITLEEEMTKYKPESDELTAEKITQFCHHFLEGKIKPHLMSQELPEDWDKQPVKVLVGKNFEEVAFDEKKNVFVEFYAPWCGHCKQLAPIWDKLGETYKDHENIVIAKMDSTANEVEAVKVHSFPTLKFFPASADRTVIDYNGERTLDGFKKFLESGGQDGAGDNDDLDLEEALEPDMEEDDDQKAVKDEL
Briefly: immunoprecipitation with rat VKORC1 antibodies from solubilised rat liver microsomal membranes, Western blot with PDI monoclonal antibody. The text has this: Lane St. has standard proteins. […] Lanes D and E show Western blots of extracted human and rat liver microsomes respectively with peptide antibodies raised against an epitope on human VKORC1 (see Experimental Procedures). […] The sequence of precipitating and first antibody is shown. Rat PDI and the heavy (HIgG) and light (LIgG) chains of mouse IgG are visible. Panel II, lanes G.Ox. and G.Red show immunoprecipitates obtained with rat VKORC1 antibodies and their Western blots developed with the mouse PDI monoclonal antibody as the first antibody and horse radish conjugated goat anti-mouse IgG as the second antibody. The sequence of precipitating and first antibody is shown. Preparation of the samples before SDS-PAGE in 8-12% CRITERION gels is described in detail in Experimental Procedures. The samples in G.Ox and G.Red were not reduced and reduced with ME respectively prior to electrophoresis.
Extracted microsomal membranes were resuspended in buffer D (250 mM sodium phosphate, 0.5 M KCl, 20% glycerol, 0.75% CHAPS, pH 7.85 containing 10 μg/ml of the Sigma Protease Inhibitor Cocktail for use with mammalian cell and tissue extracts) using a Dounce homogenizer. For blocking of free thiol groups, 20 mg NEM was added per ml of buffer D before homogenizing. The protein concentration was 6.8 mg/ml. […]
Background: Microsomes from liver hold many membrane-bound enzymes, among them those of drug oxidation.

B1: Rat VKORC1 in extracted rat liver microsomal membranes (enzyme, UniProt Q6TEK4 1-161, looked up)
chain: MGTTWRSPGRLRLALCLAGLALSLYALHVKAARARNEDYRALCDVGTAISCSRVFSSRWGRGFGLVEHVLGADSILNQSNSIFGCMFYTIQLLLGCLRGRWASILLILSSLVSVAGSLYLAWILFFVLYDFCIVCITTYAINAGLMLLSFQKVPEHKVKKP
notes: Endogenous protein
For B1, the binding result is listed as “binds”.
